Measurements taken from patent US20080312158A1 (University of California, published 2008).

Molecular target: the molecule itself
Assay: aggregation assay of S2 cells transfected with fasciclin IV (homophilic adhesion)
Text: To ask whether fasciclin IV can function as a homophilic cell adhesion molecule, the fasciclin IV cDNA with the complete ORF was placed under the control of the inducible metallothionein promoter (Bunch et al. 1988). transfected into S2 cells, and assayed for its ability to promote adhesion in normally non-adhesive S2 cells. Following induction with copper, fasciclin IV was synthesized in these S2 cells as shown by Western blot analysis and cell surface staining of induced S2 cells with the polyclonal antiserum described above.
A restriction fragment containing the full length fasciclin IV cDNA was cloned into pRmHa-3 (Bunch et al, 1988) and co-transformed into Drosophila S2 cells (Schneider, 1972) with the plasmid pPC4 (Jokerst et al., 1989), which confers a-amanitin resistance. S2 cells were transformed using the Lipofectin Reagent and recommended protocol (BRL) with minor modifications. All other S2 cell manipulations are essentially as described (Snow et al., 1989), including adhesion assays. Fasciclin IV expression in transformed cell lines was induced for adhesion assays and histology by adding CuSO₄ to 0.7 mM and incubating for at least 48 hrs. […] Amount of protein per lane in each sample loaded: fasciclin IV protein, ˜5 ng; S2 cell membranes, […]; grasshopper membranes […]. […]

B1: Grasshopper fasciclin IV (now called G-Semaphorin I) (other)
chain: WVNDVSPKMYVQFGEERVQRFLGNESHKDHFKLLEKDHNSLLVGARNIVYNISLRDLTEFTEQRIEWHSSGAHRELCYLKGKSEDDCQNYIRVLAKIDDDRVLICGTNAYKPLCRHYALKDGDYVVEKEYEGRGLCPFDPDHNSTAIYSEGQLYSATVADFSGTDPLIYRGPLRTERSDLKQLNAPNFVNTMEYNDFIFFFFRETAVEYINCGKAIYSRVARVCKHDKGGPHQGGDRWTSFLKSRLNCSVPGDYPFYFNEIQSTSDIIEGNYGGQVEKLIYGVFTTPVNSIGGSAVCAFSMKSILESFDGPFKEQETMNSNWLAVPSLKVPEPRPGQCVNDSRTLPDVSVNFVKSHTLMDEAVPAFFTRPILIRISLQYRFTKIAVDQQVRTPDGKAYDVLFIGTDDGKVIKALNSASFDSSDTVDSVVIEELQVLPPGVPVKNLYVVRMDGDDSKLVVVSDDEILAIKLHRCGSDKITNCRECVSLQDPYCAWDNVELKCTAVGSPDWSAGKRRFIQNISLGEHKACGGRPQTEIVASPVPTQPTTKSSGDPVHSIHQAEFEPEIDNEIVIGVDDSNVIPNTLAEINHAGSKLPSSQEKLPIYTAETLTIAIVTSCLGALVVGFISGFLFSRRCRGEDYTDMPFPDQRHQLNRLTEAGLNADSPYLPPCANNKAAINLVLNVPPKNANGKNANSSAENKPIQKVKKTYI
modifications: N-linked oligosaccharides (shown by N-Glycanase treatment)
notes: also called 6F8 antigen; grasshopper Semaphorin I
binding result: no binding
